Patent US20240165255A1 (FRED HUTCHINSON CANCER CENTER, published 2024)

Molecular target: folate receptor alpha (FOLR1) on MV4;11 FOLR1+ cells and on CBF/GLIS-transduced CB HSPCs (UniProt P15328 25-234, limits assumed)
Experiment: cell-based or functional assay

Sequence of folate receptor alpha (FOLR1) on MV4;11 FOLR1+ cells and on CBF/GLIS-transduced CB HSPCs (P15328 25-234 limits assumed): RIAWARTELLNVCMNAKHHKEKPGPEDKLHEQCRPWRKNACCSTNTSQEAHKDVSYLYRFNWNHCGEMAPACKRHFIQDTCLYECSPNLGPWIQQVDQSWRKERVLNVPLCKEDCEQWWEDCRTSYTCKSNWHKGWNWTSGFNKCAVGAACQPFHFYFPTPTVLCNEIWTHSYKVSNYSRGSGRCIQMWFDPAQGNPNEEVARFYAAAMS

B1: FOLR1-directed site-specific antibody-drug Conjugate P (IgG antibody with VH region SEQ ID NO: 362 and VL region SEQ ID NO: 367, conjugate formula P, n=4) (antibody, V domains shown)
VH: EVQLVESGGGLVQPGGSLRLSCAASGFNIRTQSIHWVRQAPGKGLEWIGDIFPIDGITDYADSVKGRFTISADTSKNTAYLQMNSLRAEDTAVYYCARGSWSWPSGMDYYLDYWGQGTLVTVSS
VL: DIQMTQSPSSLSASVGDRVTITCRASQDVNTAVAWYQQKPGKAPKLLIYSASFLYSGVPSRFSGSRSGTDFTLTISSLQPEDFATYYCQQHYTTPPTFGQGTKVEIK
modifications: para-azidomethylphenylalanine residues substituting for Y180 and F404 of each VH region (so in the source); heavy chain positions), conjugated according to conjugate formula P, n=4 (hemiasterlin drug-linker)
For B1, the “in vitro cytotoxicity IC50 (printed as '1050s') against CBF/GLIS-transduced CB HPSCs (which upregulate FOLR1)” value was 4.2 nM and the “in vitro cytotoxicity IC50 (printed as '1050s') against MV4;11 AML cell line engineered to express FOLR1 (MV4;11 FOLR1+)” value was 0.1 nM.
